{"source": "paper PMC4728560", "about": "“TCTP contains a BH3-like domain, which instead of inhibiting, activates Bcl-xL” (Scientific Reports, 2016)", "molecular_target": "T1, Bcl-xL, recombinant protein (human, UniProt Q07817-1 1-233)", "T1 construct": "Bcl-xL, human; also called wild type Bcl-xL; source: purified recombinant protein; host and details in Supplementary Information", "T1 sequence (Q07817 whole entry)": "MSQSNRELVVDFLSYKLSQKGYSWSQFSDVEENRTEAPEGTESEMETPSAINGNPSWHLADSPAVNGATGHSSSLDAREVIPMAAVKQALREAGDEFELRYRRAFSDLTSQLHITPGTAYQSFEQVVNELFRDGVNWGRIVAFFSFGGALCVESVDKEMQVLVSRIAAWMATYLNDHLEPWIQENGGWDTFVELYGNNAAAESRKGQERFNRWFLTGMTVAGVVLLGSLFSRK", "experiment": "ITC; peptide titrated into Bcl-xL in the cell; 30 °C, 50 mM ammonium bicarbonate pH 9; ITC200 calorimeter", "details": "both partners purified", "data": [{"binder": "QPPQDASTKKLSECIREIADGLCLEV", "note": "[hybrid Bax/TCTP peptide (TCTP BH3 peptide containing the Bax h1 (P1) sub-region)]", "values": [{"measurement": "Kd", "result": 500, "unit": "nM"}]}]}
